Measurements taken from patent publication US12467929.
Blank lines part the entries; values can stand above or below the substance they belong to.

Columns and labels:
[1] = target: recombinant UBE3A protein (Homo sapiens (Human)) (UniProt Q05086); assay: 3-step Simoa; capture GTX; UBE3A 0.122 ng/ml
[2] = target: recombinant UBE3A protein (Homo sapiens (Human)) (UniProt Q05086); assay: 2-step Simoa; capture GTX; UBE3A 31.3 ng/ml
[3] = target: recombinant UBE3A protein (Homo sapiens (Human)) (UniProt Q05086); assay: 3-step Simoa; capture MS 2F6; UBE3A 0.010 ng/ml
[4] = target: recombinant UBE3A protein (Homo sapiens (Human)) (UniProt Q05086); assay: Simoa; capture GTX; 3E5 0.8 ug/ml; UBE3A 0.160 ng/ml
[5] = target: recombinant UBE3A protein (Homo sapiens (Human)) (UniProt Q05086); assay: Simoa head-to-head, Table 11; capture MS 2F6; UBE3A 0.80 ng/ml
[6] = target: recombinant UBE3A protein (Homo sapiens (Human)) (UniProt Q05086); assay: Simoa; capture GTX; SBG 75 pm; UBE3A 0.160 ng/ml
[7] = target: recombinant UBE3A protein (Homo sapiens (Human)) (UniProt Q05086); assay: Simoa; capture GTX + helper beads; 3E5 0.1 ug/ml; UBE3A 20.0 ng/ml
[8] = target: recombinant UBE3A protein (Homo sapiens (Human)) (UniProt Q05086); assay: Simoa; capture GTX, no helper beads; 3E5 0.2 ug/ml; UBE3A 0.0320 ng/ml
[9] = target: recombinant UBE3A protein (Homo sapiens (Human)) (UniProt Q05086); assay: Simoa; capture GTX; 3E5 0.4 ug/ml; UBE3A 0.0320 ng/ml
[10] = target: recombinant UBE3A protein (Homo sapiens (Human)) (UniProt Q05086); assay: Simoa; capture GTX; 3E5 0.8 ug/ml; UBE3A 4.00 ng/ml
[11] = target: recombinant UBE3A protein (Homo sapiens (Human)) (UniProt Q05086); assay: Simoa head-to-head, Table 11; capture MS 2F6; UBE3A 4.00 ng/ml
[12] = target: recombinant UBE3A protein (Homo sapiens (Human)) (UniProt Q05086); assay: Simoa; capture GTX + helper beads; 3E5 0.4 ug/ml; UBE3A 0.160 ng/ml
[13] = target: recombinant UBE3A protein (Homo sapiens (Human)) (UniProt Q05086); assay: Simoa; capture GTX; 3E5 0.8 ug/ml; UBE3A 0.0320 ng/ml
[14] = target: recombinant UBE3A protein (Homo sapiens (Human)) (UniProt Q05086); assay: Simoa; capture GTX; 3E5 0.2 ug/ml; UBE3A 0.160 ng/ml
[15] = target: recombinant UBE3A protein (Homo sapiens (Human)) (UniProt Q05086); assay: Simoa; capture GTX + helper beads; 3E5 0.1 ug/ml; UBE3A 0.0320 ng/ml
[16] = target: recombinant UBE3A protein (Homo sapiens (Human)) (UniProt Q05086); assay: Simoa; capture GTX + helper beads; 3E5 0.2 ug/ml; UBE3A 4.00 ng/ml
[17] = target: recombinant UBE3A protein (Homo sapiens (Human)) (UniProt Q05086); assay: Simoa; capture GTX; SBG 150 pm; UBE3A 0.0320 ng/ml
[18] = target: recombinant UBE3A protein (Homo sapiens (Human)) (UniProt Q05086); assay: 3-step Simoa, 120 min bead step; capture GTX; UBE3A 500 ng/ml
[19] = target: recombinant UBE3A protein (Homo sapiens (Human)) (UniProt Q05086); assay: Simoa; capture GTX; SBG 75 pm; UBE3A 4.00 ng/ml
[20] = target: recombinant UBE3A protein (Homo sapiens (Human)) (UniProt Q05086); assay: Simoa; capture GTX; 3E5 0.1 ug/ml; UBE3A 0.00128 ng/ml

Chain of UniProt Q05086 (Q05086 whole entry): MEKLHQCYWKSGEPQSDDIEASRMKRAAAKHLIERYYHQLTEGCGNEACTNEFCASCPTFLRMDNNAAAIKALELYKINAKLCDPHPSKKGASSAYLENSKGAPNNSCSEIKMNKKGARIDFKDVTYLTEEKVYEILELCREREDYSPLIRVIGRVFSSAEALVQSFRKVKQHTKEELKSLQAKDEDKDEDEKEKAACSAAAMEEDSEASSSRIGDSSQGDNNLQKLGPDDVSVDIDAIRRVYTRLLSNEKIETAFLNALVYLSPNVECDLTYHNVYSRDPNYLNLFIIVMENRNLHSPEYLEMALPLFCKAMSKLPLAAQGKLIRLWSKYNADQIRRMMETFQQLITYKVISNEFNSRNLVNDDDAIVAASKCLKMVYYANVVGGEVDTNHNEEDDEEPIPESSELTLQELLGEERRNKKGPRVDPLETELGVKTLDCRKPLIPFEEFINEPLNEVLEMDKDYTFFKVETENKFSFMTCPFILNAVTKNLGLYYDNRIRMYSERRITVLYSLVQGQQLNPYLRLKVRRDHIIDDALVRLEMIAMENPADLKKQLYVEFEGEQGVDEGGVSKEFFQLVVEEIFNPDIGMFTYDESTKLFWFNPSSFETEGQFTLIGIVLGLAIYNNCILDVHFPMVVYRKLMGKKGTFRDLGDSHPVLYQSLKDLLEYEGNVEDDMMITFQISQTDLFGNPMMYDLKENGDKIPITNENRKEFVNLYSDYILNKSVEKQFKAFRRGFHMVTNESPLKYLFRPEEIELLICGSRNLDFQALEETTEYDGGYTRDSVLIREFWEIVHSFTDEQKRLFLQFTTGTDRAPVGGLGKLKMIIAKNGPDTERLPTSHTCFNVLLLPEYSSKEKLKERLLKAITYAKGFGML

AEB1 [1]: 0.0021
AEB2 [1]: 0.002
Ave AEB [1]: 0.002
Signal to Background [1]: 0.624
AEB1 [2]: 0.141
AEB2 [2]: 0.126
Ave AEB [2]: 0.134
Signal to Background [2]: 40.8
Substance: NB500-240 (Novus) (antibody)

AEB1 [3]: 0.0035
AEB2 [3]: 0.0048
Ave AEB [3]: 0.0042
Signal to Background [3]: 1.06
AEB1 [4]: 0.235
AEB2 [4]: 0.263
AEB3 [4]: 0.226
Average AEB [4]: 0.241
Signal to Background [4]: 1.97
AEB1 [5]: 0.0183
AEB2 [5]: 0.0197
Ave AEB [5]: 0.019
Signal to Background [5]: 5.03
AEB1 [6]: 0.0299
AEB2 [6]: 0.0294
AEB3 [6]: 0.03
Average AEB [6]: 0.0298
Signal to Background [6]: 6.82
AEB1 [7]: 3.37
AEB2 [7]: 3.48
Average AEB [7]: 3.42
Signal to Background [7]: 597
AEB1 [8]: 0.0229
AEB2 [8]: 0.0244
Average AEB [8]: 0.0236
Signal to Background [8]: 2.44
AEB1 [9]: 0.0958
AEB2 [9]: 0.0924
AEB3 [9]: 0.095
Average AEB [9]: 0.0944
Signal to Background [9]: 1.51
AEB1 [10]: 3.18
AEB2 [10]: 3.38
AEB3 [10]: 3.16
Average AEB [10]: 3.24
Signal to Background [10]: 26.4
AEB1 [11]: 0.0868
AEB2 [11]: 0.0803
Ave AEB [11]: 0.0836
Signal to Background [11]: 22.1
AEB1 [12]: 0.0913
AEB2 [12]: 0.105
Average AEB [12]: 0.0983
Signal to Background [12]: 5.03
AEB1 [13]: 0.144
AEB2 [13]: 0.138
AEB3 [13]: 0.152
Average AEB [13]: 0.145
Signal to Background [13]: 1.18
AEB1 [14]: 0.125
AEB2 [14]: 0.123
AEB3 [14]: 0.121
Average AEB [14]: 0.123
Signal to Background [14]: 3.14
AEB1 [15]: 0.0159
AEB2 [15]: 0.0108
Average AEB [15]: 0.0134
Signal to Background [15]: 2.33
AEB1 [16]: 0.892
AEB2 [16]: 0.846
Average AEB [16]: 0.869
Signal to Background [16]: 89.8
AEB1 [17]: 0.0262
AEB2 [17]: 0.0285
AEB3 [17]: 0.0282
Average AEB [17]: 0.0276
Signal to Background [17]: 2.08
AEB1 [18]: 16.8
AEB2 [18]: 16.8
Ave AEB [18]: 16.8
Signal to Background [18]: 9850
AEB1 [19]: 0.459
AEB2 [19]: 0.46
AEB3 [19]: 0.458
Average AEB [19]: 0.459
Signal to Background [19]: 105
AEB1 [20]: 0.0242
AEB2 [20]: 0.0239
AEB3 [20]: 0.0247
Average AEB [20]: 0.0243
Signal to Background [20]: 1.26
Substance: anti-UBE3A antibody 3E5 (SAB1404508-100 ug, Millipore-Sigma)
